Consider three molecules from US7053194 (FOX CHASE CANCER CENTER, dated 2006).

The target of the experiment is T1, GST p53 (amino acids 1-393), GST fusion protein of full-length p53 (human, UniProt P04637 1-393).
T1 construct: not shown: glutathione S-transferase (GST) fusion partner
In words: in vitro interaction of truncated mSin3a with GST p53. The protocol:
GST-fusion proteins were prepared from E. coli cells as described (Murphy et al., Genes & Devel. 10:2971–2980, 1996). One microgram of GST or fusion protein was bound to glutathione sepharose beads and incubated with 10 uL of ^35S methionine labeled, in vitro translated proteins generated in a coupled transcription/translation system (TNT, Promega). Binding occurred in 300 uL of binding buffer (20 mM Hepes pH 7.9/150 mM KC1/1 mM EDTA/4 mM MgC12/1 mM DTT/0.02% NP-40/10% glycerol) supplemented with protease inhibitors. Proteins were bound for 30 minutes at 4 degrees, and bound complexes were washed three times in wash buffer with constant vortexing (20 mM Hepes pH 7.9/150 mM KC1/1 mM EDTA/4 mM MgCl2/1 mM DTT/0.1% NP-40/10% glycerol). Bound proteins were eluted in 1× Laemmli sample buffer and separated on 7.5% or 10% SDS-PAGE. […] Bound complexes were washed twice in NP-40 buffer, once in RIPA buffer, and resolved on SDS-PAGE.

T1 sequence (P04637 whole entry, the tested form may be a part): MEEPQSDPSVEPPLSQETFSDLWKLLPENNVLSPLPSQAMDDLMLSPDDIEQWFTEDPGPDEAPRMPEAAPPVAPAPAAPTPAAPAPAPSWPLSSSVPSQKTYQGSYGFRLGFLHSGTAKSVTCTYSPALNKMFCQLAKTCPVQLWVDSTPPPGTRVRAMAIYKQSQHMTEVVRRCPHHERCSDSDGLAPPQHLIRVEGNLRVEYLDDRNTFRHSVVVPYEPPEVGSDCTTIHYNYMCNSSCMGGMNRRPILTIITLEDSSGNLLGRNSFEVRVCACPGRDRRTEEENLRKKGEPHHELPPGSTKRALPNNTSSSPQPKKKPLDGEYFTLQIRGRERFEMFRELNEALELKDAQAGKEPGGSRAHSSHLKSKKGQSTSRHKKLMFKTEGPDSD

B1: truncated mSin3a, amino acids 112-192 (paired amphipathic helix 1) (other, UniProt Q60520 112-192, looked up)
chain: VQGQQQFQRLKVEDALSYLDQVKLQFGSQPQVYNDFLDIMKEFKSQSIDTPGVISRVSQLFKGHPDLIMGFNTFLPPGYKI
notes: range 112-192; Printed PAM is read as PAH1; also called PAM (so in the source); PAH1
With B1, the binding result is recorded as “no binding”.

B2: truncated mSin3a, amino acids 297-529 (PAH2-3) (other, UniProt Q60520 297-529, looked up)
chain: QNNQPVEFNHAINYVNKIKNRFQGQPDIYKAFLEILHTYQKEQRNAKEAGGNYTPALTEQEVYAQVARLFKNQEDLLSEFGQFLPDANSSVLLSKTTAEKVDSVRNDHGGTVKKPQLNNKPQRPSQNGCQIRRHSGTGATPPVKKKPKLMSLKESSMADASKHGVGTESLFFDKVRKALRSAEAYENFLRCLVIFNQEVISRAELVQLVSPFLGKFPELFNWFKNFLGYKESV
notes: range 297-529
Take B2: the binding result is “binds”.

B3: truncated mSin3a, amino acids 297-386 (PAH 2) (other, UniProt Q60520 297-386, looked up)
chain: QNNQPVEFNHAINYVNKIKNRFQGQPDIYKAFLEILHTYQKEQRNAKEAGGNYTPALTEQEVYAQVARLFKNQEDLLSEFGQFLPDANSS
notes: range 297-386
With B3, the binding result is reported as “no binding”.
